The values below come from publication doi:10.1101/2021.11.12.468217 (bioRxiv, 2021).

The target in series [1] is T1, DesKC_H188E, DesKC trapped in the phosphotransferase state (Bacillus subtilis, UniProt O34757, H188E).
T1 sequence: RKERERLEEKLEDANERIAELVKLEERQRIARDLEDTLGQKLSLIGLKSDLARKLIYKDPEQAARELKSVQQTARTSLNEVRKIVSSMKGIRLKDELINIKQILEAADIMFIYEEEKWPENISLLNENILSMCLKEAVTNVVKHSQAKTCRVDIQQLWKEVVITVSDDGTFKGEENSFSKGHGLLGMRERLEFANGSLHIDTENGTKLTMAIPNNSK
The series can be described thus: crystal structure.

Series [2] deals with the molecule itself.
Series [3] deals with the molecule itself. The series can be described thus: SEC.

Broadly, the Kd is the concentration at which binding is half-saturated. Read a low Kd as higher affinity.

Changes are numbered by the printed parent chain. Numbers in names are those of the source.

B1: DesR_REC-Q10A, receiver domain of DesR with Q10A, as crystallised with DesKC_H188E (domain or fragment)
chain: MISIFIAEDAQMLLGALGSLLNLEDDMEVVGKGTTGQDAVDFVKKRQPDVCIMDIEMPGKTGLEAAEELKDTGCKIIILTTFARPGYFQRAIKAGVKGYLLKDSPSEELANAIRSVMNGKRIYAPELMEDLYSEA
As to B1, the binding result in series [1] was “binds”.

B2: Phosphorylated DesR_REC-Q10A (domain or fragment)
chain: B1 chain
B2: in series [2], the Kd was determined as 1440 nM and the “fold increase of the KD of dimerization against wild type P~RR” value worked out at 4 fold.

B3: Phosphorylated DesR-REC (P~DesRREC), wild type (domain or fragment)
chain: B1 chain with A10Q
Take B3: in series [3], the binding result is given as “binds”.
